Data published in publication PMC9351521 (Proceedings of the National Academy of Sciences of the …, 2022).
Changes are numbered by the printed parent chain. In names and notes the source's numbering stands. Several values for one entry are separate records, joined by “and”; a condition that tells them apart may be missing. Equal values may be shown once.

Tests used:
Details in all cases: both partners purified
RBD-Fc [1] = biological target: T1, RBD-Fc (SARS-CoV-2, wild-type RBD (P0DTC2 …)); assay: SPR; […]; Biacore T200, PBS pH 7.4 with 0.005% P20, 25 °C; 1:1 binding model; […]
T1 construct: also called RBD (immobilized as RBD-Fc on the chip)

[2] = biological target: T2, biotinylated RBD (wild type) (SARS-CoV-2, wild-type RBD (P0DTC2 …)); assay: SPR; […]; Biacore T200, PBS pH 7.4 with 0.005% P20, 25 °C; kinetic fit, 1:1 binding model; […]
[3] = biological target: T2, biotinylated RBD (wild type); assay: SPR; […]; Biacore T200, PBS pH 7.4 with 0.005% P20, 25 °C; […]
RBD-Fc [4] = biological target: RBD-Fc (SARS-CoV-2, wild-type RBD (P0DTC2 …)); assay: SPR; Biacore T200, PBS pH 7.4 with 0.005% P20, 25 °C; […]; 1:1 binding model
biotinylated RBD = biotinylated RBD (SARS-CoV-2, wild-type RBD (P0DTC2 …)); assay: SPR; Biacore T200, PBS pH 7.4 with 0.005% P20, 25 °C; […]

B1: H11-A10 (VHH)
VHH: QVQLVESGGGLMQAGGSLRLSCAVSGRTFSTAAMGWFRQAPGKEREFVAAIRWSGGSAYYADSVKGRFTISRDKAKNTVYLQMNSLKYEDTAVYYCAGFSATRSLLSDYATWPYDYWGQGTQVTVSS
B1 was tested, and the Kd (RBD-Fc [1]) was 9.2 nM and 9.3 nM, the koff (RBD-Fc [1]) was 0.055 s⁻¹ and 0.047 s⁻¹ and the kon (RBD-Fc [1]) was 5.9e+06 M⁻¹ s⁻¹ and 5e+06 M⁻¹ s⁻¹.

B2: H11-H4 Q98R H100E (D4 hybrid) (VHH)
VHH: B1 VHH with G98R, F99T, S100E, A101Y, T102V, R103S, S104Y
With B2 the Kd [2] was 4.3 nM and 4.8 nM, the koff [2] was 0.024 s⁻¹ and 0.025 s⁻¹ and the kon [2] was 5.5e+06 M⁻¹ s⁻¹ and 5.2e+06 M⁻¹ s⁻¹.

B3: H11-H4 Y104F (VHH)
VHH: B1 VHH with G98Q, F99T, S100H, A101Y, T102V, R103S, S104F
B3 was tested, and the Kd [2] was 37.4 nM and 33.2 nM, the koff [2] was 0.072 s⁻¹ and 0.074 s⁻¹ and the kon [2] was 1.9e+06 M⁻¹ s⁻¹ and 2.2e+06 M⁻¹ s⁻¹.

B4: H11-H4 Y101A (VHH)
VHH: B1 VHH with G98Q, F99T, S100H, T102V, R103S, S104Y
In the case of B4, the Kd [3] is reported as 791 nM.

B5: nanobody H11-H6 (VHH)
VHH: B1 VHH with F99S, S100K, A101I
For B5, the t1/2 (RBD-Fc [4]) was 25 s.

B6: nanobody H11-A10 (VHH)
VHH: B1 VHH
In the case of B6, the t1/2 (RBD-Fc [4]) is reported as 14 s.

B7: H11-B5 (VHH)
VHH: B1 VHH with G98S, F99Y, S100Q
B7 was tested, and the Kd (RBD-Fc [1]) was 8.8 nM and 7.6 nM, the koff (RBD-Fc [1]) was 0.051 s⁻¹ and 0.046 s⁻¹ and the kon (RBD-Fc [1]) was 5.8e+06 M⁻¹ s⁻¹ and 6.1e+06 M⁻¹ s⁻¹.

B8: nanobody H11-H4 R52A (VHH)
VHH: B1 VHH with R52A, G98Q, F99T, S100H, A101Y, T102V, R103S, S104Y
B8: no binding (biotinylated RBD).

B9: H11-H6 (VHH)
VHH: B1 VHH with F99S, S100K, A101I
B9 was tested, and the Kd (RBD-Fc [1]) was 8.1 nM and 8.3 nM, the koff (RBD-Fc [1]) was 0.032 s⁻¹ and 0.025 s⁻¹ and the kon (RBD-Fc [1]) was 3.9e+06 M⁻¹ s⁻¹ and 3e+06 M⁻¹ s⁻¹.

B10: H11-H4 Y104S (VHH)
VHH: B1 VHH with G98Q, F99T, S100H, A101Y, T102V, R103S
B10 was tested, and the Kd [3] was 273 nM.

B11: nanobody H11-B5 (VHH)
VHH: B1 VHH with G98S, F99Y, S100Q
With B11 the t1/2 (RBD-Fc [4]) was 14 s.

B12: H11 V101Y R103S (VHH)
VHH: B1 VHH with G98Q, F99T, S100R, A101Y, R103S
With B12 the Kd [3] was 1700 nM.

B13: nanobody H11-H4 R52K (VHH)
VHH: B1 VHH with R52K, G98Q, F99T, S100H, A101Y, T102V, R103S, S104Y
B13: no binding (biotinylated RBD).

B14: nanobody H11-H4 R52E (VHH)
VHH: B1 VHH with R52E, G98Q, F99T, S100H, A101Y, T102V, R103S, S104Y
B14: no binding (biotinylated RBD).
